Experimental findings from article PMC6152284, “Cloning and Characterization of Two Iridoid Synthase Homologs from Swertia Mussotii” (Molecules : A Journal of Synthetic Chemistry and Natural …, 2017) are described below.

Substrate in data set [1]: C/C(C=O)=C\CC/C(C)=C/C=O
Description: purified protein. The format is biochemical, Swertia mussotii. Particulars: co-substrate NADPH, 20 mM MOPS pH 7.0, 40 °C, substrate stock contained 8-oxoneral isomer.

Substrate in data set [2]: NC(=O)C1=CN([C@@H]2O[C@H](COP(=O)(O)OP(=O)(O)OC[C@H]3O[C@@H](n4cnc5c(N)ncnc54)[C@H](OP(=O)(O)O)[C@@H]3O)[C@@H](O)[C@H]2O)C=CC1
As to the kind of experiment: purified protein. The data set is classed as biochemical, Swertia mussotii. As to conditions: co-substrate 8-oxogeranial, 20 mM MOPS pH 7.0, 40 °C, varied: cofactor.

B1: SmIS2 (Swertia mussotii) (protein)
chain: MSWWWTGAVAAAREKVYDERPKTSPSVALIIGVTGIVGNSLADILPLSDTPGGPWKVYGVARRPRPAWSEDHPVEYIQLDVYNAKETQSKLSPLTDITHIFWTTWANRPTEAECCQVNGAMLQNVIDAVLPNAPNLSHICIQTGHKHYIGPFETFGKIKPHETPFIEDVPRLDVPNFYYTLEDITLETCKKKEGLTWSVHRPAVIFGFSPYSMMNLIGSLCVYAAICKHENVPFTYPGTKGAWNCYSVASDADLIAEHQIWASVDPYAKNEAYNCSNGDLFKWKSLWKVLAEQFDLEYVEFDENQDYVSLAERMKDKGPVWDEIVKQNKLTPTKLEEVATFWFADVIFSGECMLDSMSKSKEHGFLGFRDTTKSLLSVVGKMKAHKIVP
notes: pET-28a, 6-His tags at N- and C-terminus (~46 kDa); E. coli BL21(DE3), purified
The term Km denotes the concentration of substrate that gives half-maximal velocity. In general, kcat refers to the number of substrate molecules converted per active site and unit of time at saturation. By kcat/Km is commonly meant the turnover number divided by the Michaelis constant. As to B1, in data set [1] (His-tagged), the Km came to 54.37 ± 4.29 µM, the kcat came to 0.034 ± 0.001 s⁻¹ and the kcat/Km was 629 ± 75.9 M⁻¹ s⁻¹. Also, in data set [2] (His-tagged), the Km was found to be 41.83 ± 7.2 µM, the kcat was found to be 0.026 ± 0.01 s⁻¹ and the kcat/Km came to 628 ± 105 M⁻¹ s⁻¹.

B2: SmIS1 (Swertia mussotii) (protein)
chain: MSWWWKRSVQAQNLPEKNQPNGVAETAGRYESVALVVGVTGIVGSSLAQVLKLPDTPGGPWKVYGVARRPCPAWLAKFHVEYIQCDVSNTEEAKTKLSPLKDVTHIFYVSWIGSEDCETNAVMFKNILYNIIPVAPNLKHISLQTGSKHYFGIFEEGSEAVPHESPYTEDLPRLNIPNFYHDLEDILFEETAKHGLTWCVQRPALIFGFSPCSLMNIVSTLSIYATICKHEKKPLVYPGSKASWNCYVDGADADLAAEHHIWAAVDPKAKNQVFNVKNGDVFKWKNVWKMLADEFEMEMVGYIEGNEQVSMAELMKDKDGVWDEIVKKHKLEDTKLKEIAAFWFADIAFSCVDLVMSVTKSREFGFLGFRDSMKSFKSCIHKMRDFKFIP
notes: pETMALc-H, N-terminal MBP fusion with 10 His (~88 kDa); E. coli BL21(DE3), purified
On to B2, for which, in data set [1] (MBP fusion), the Km amounted to 7.29 ± 1.59 µM, the kcat turned out to be 0.11 ± 0.007 s⁻¹ and the kcat/Km worked out at 15600 ± 4350 M⁻¹ s⁻¹. Also, in data set [2] (MBP fusion), the Km worked out at 77.94 ± 6.03 µM, the kcat came to 0.135 ± 0.01 s⁻¹ and the kcat/Km stood at 1732 ± 11.3 M⁻¹ s⁻¹.
